Assay results: patent US20140178390A1 (published 2014)

T1: Cynomolgus CXCR7 (cynomolgus, UniProt P25106 1-362 (human entry))
T1 construct: On transfected HEK293 cells; also called cCXCR7; cyno CXCR7
T1 chain: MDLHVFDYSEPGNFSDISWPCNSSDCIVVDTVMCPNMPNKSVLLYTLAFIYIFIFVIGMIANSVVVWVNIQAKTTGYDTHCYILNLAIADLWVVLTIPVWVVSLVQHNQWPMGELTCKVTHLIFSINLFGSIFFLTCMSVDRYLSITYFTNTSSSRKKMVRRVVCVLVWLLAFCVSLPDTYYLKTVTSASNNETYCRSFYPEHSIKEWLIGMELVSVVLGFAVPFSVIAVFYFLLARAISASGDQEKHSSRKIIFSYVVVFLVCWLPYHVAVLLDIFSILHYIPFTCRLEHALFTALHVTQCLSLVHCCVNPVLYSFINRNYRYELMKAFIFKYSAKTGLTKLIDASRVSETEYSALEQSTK


Tests used:
Human CXCR7 [1] = molecular target: T2, Human CXCR7 (human, UniProt P25106 1-362); experiment: phage ELISA on immobilized hCXCR7 VLPs, OD 450 nm
T2 construct: see assay field; also called hCXCR7
T2 sequence (P25106 whole entry): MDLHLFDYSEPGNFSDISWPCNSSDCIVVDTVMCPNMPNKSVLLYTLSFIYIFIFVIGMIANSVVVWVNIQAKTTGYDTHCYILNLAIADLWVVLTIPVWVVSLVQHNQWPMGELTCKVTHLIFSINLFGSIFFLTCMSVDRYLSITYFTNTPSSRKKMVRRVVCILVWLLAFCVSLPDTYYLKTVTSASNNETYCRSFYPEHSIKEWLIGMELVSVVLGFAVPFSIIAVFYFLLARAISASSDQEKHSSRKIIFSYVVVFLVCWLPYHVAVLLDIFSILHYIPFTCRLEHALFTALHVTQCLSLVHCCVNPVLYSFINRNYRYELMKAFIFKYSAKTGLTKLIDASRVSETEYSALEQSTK
Procedure: (§1) From all round 2 selection outputs clones were screened in phage ELISA on 2 units of immobilized CXCR7VLPs applying 10-fold dilutions of phage supernatant. […] The reaction was stopped with H₂SO₄ and the absorbance was measured at 450 nm using Sunrise TECAN spectrophotometer (TECAN). Nanobodies, showing a minimally 2-fold increased ELISA signal on hCXCR7VLPs over non-transfected control VLPs, were considered to be CXCR7 specific. CXCR7 specific Nanobodies were sequenced and redundant Nanobodies (identical AA sequence) were removed.

Human CXCR7 [2] = molecular target: T2, Human CXCR7; experiment: phage ELISA, hCXCR7 VLPs over non-transfected control VLPs
Procedure: as §1

Human CXCR7 [3] = molecular target: T2, Human CXCR7; experiment: FACS, Hek293 hCXCR7 over Hek293 wt cells
Procedure: (§2) Clones representing distinct Nanobody B-cell lineages were tested as periplasmic extracts for their binding to cell surface exposed CXCR7. In this assay, 5-fold dilutions of periplasmic extract were incubated with Hek293 hCXCR7 and Hek293 wt cells. Binding of the Nanobodies was detected using mouse anti-myc (Serotec), followed by anti-mouse IgG-PE (Jackson Immununoresearch).

Human CXCR7 [4] = molecular target: T2, Human CXCR7; experiment: FACS, periplasmic extract on Hek293 hCXCR7 cells
Procedure: as §2

Human CXCR7 [5] = molecular target: T2, Human CXCR7; experiment: FACS binding, purified protein on stable HEK-CXCR7 cells
Human CXCR7 [6] = molecular target: T2, Human CXCR7; experiment: [125I]-CXCL12 displacement on NIH3T3-hCXCR7 cells, relative to cold SDF-1
Procedure: (§3) After incubation, cells were washed twice, lysed with RIPA buffer and the ¹²⁵I signal was measured.

Human CXCR7 [7] = molecular target: T2, Human CXCR7; experiment: [125I]-CXCL12 displacement on NIH3T3-hCXCR7 cells
Procedure: as §3

Cynomolgus CXCR7 = molecular target: T1, Cynomolgus CXCR7; experiment: FACS on HEK293 cells expressing cynomolgus CXCR7, 800 nM Nanobody
Procedure: (§4) HEK293 cells transfected respectively with pcDNA3.1-hCXCR7 and pcDNA3.1-mCXCR7 were used to test cross-reactive binding of Nanobodies to mouse CXCR7 in FACS analysis. […] Nanobody binding was detected using mouse anti-myc (Serotec) and anti-mouse IgG-PE (Jackson Immunoresearch) and Mab binding by goat anti-mouse IgG-PE (Jackson Immunoresearch).
Cross-reactive binding to cynomolgus CXCR7 was assessed in the same way.

Mouse CXCR7 [8] = molecular target: T3, Mouse CXCR7 (mouse, UniProt P56485 1-362); experiment: FACS on HEK293 cells transfected with pcDNA3.1-mCXCR7, 800 nM Nanobody
T3 construct: On transfected HEK293 cells; also called mCXCR7
T3 sequence (P56485 whole entry): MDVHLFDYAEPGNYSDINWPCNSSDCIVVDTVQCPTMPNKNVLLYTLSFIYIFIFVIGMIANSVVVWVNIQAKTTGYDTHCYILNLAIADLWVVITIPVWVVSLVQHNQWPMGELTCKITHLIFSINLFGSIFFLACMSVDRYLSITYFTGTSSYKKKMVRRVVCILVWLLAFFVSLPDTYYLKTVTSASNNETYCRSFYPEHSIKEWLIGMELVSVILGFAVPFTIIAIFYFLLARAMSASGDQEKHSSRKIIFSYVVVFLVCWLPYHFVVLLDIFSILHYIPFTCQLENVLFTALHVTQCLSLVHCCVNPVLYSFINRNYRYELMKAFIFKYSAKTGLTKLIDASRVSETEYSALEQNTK
Description: as §4

Mouse CXCR7 [9] = molecular target: T3, Mouse CXCR7; experiment: FACS on HEK293 cells transfected with pcDNA3.1-mCXCR7
Description: as §4

Human CXCR7 [10] = molecular target: T2, Human CXCR7; experiment: competition FACS with 4 nM biotinylated SDF-1 on HEK-hCXCR7 cells

| Binder | CXCR7-LP 2U/well [OD] (Human CXCR7 [1]) | Fold CXCR7-LP/Null-LP (Human CXCR7 [2]) [fold] | Fold Hek CXCR7/CXCR4 (Human CXCR7 [3]) [fold] | Hek-CXCR7 [MCF] (Human CXCR7 [4]) | Plateau [mcf] (Human CXCR7 [5]) | Average SDF-1 displacement (%) (Human CXCR7 [6]) | Ki (Human CXCR7 [7]) [nM] | binding result (Cynomolgus CXCR7) | binding result (Mouse CXCR7 [8]) | binding result (Mouse CXCR7 [9]) | competition relative to unlabelled SDF-1 (%) (Human CXCR7 [10]) |
| --- | --- | --- | --- | --- | --- | --- | --- | --- | --- | --- | --- |
| Nanobody 08A05 with Tag-1 (VHH, periplasmic extract in the screening FACS) VHH: EVQLVESGGGLVQAGDSLRLSCAASGLTFSNYDMGWFRQAPGKEREFVGASWWSGGAPYYSDSVKGRFTISRDNAKNTVYLQANSLRPEDTAVYYCAAKRLRSFASGGSYDYWGQGTQVTVSS | 0.019 | 2.4 | 60.1 | 18600 |  |  |  |  |  |  |  |
| Nanobody 08A05 with Tag-2 (VHH, Purified from E. coli periplasm) VHH: EVQLVESGGGLVQAGDSLRLSCAASGLTFSNYDMGWFRQAPGKEREFVGASWWSGGAPYYSDSVKGRFTISRDNAKNTVYLQANSLRPEDTAVYYCAAKRLRSFASGGSYDYWGQGTQVTVSS |  |  |  |  | 28500 | 77 | 13.6 | binds | binds |  |  |
| Mab 11G8 (R&D Systems) (antibody, V domains shown) VH: EVKLVESGGDLVQPGGSLKLSCATSGFTFSDYYMFWVRQTPEKRLEWVAYITNGGDRSYYSDTVTGRFIISRDNAKNTLYLQMSRLKSEDTAMYYCARQGNWAAWFVYWGQGTLVTVSA VL: DVLMTQTPLSLPVSLGDQASISCRSSHYIVHSDGNTYLEWYLQKPGQSPKLLIYKVSNRFSGVPDRFSGSGSGTDFTLKISRVEAEDLGIYYCFQGSHVPLTFGAGTKLELKR |  |  |  |  |  | 24 | 4.4 |  |  |  |  |
| Nanobody 08A10 with Tag-1 (VHH, periplasmic extract in the screening FACS) VHH: EVQLVESGGGLVQAGGSLRLSCAASGSIFSIAAMGWYRQATGKQRELVATITDGGTTTYADSVKGRVTISRDRSANTVYLAMNNLKPDDTAVYYCYAYLRYTSRVPGDNYWGQGTQVTVSS | 0.104 | 17.3 | 85.1 | 27400 |  |  |  |  |  |  |  |
| Nanobody 08A10 with Tag-2 (VHH, Purified from E. coli periplasm) VHH: EVQLVESGGGLVQAGGSLRLSCAASGSIFSIAAMGWYRQATGKQRELVATITDGGTTTYADSVKGRVTISRDRSANTVYLAMNNLKPDDTAVYYCYAYLRYTSRVPGDNYWGQGTQVTVSS |  |  |  |  | 34900 | 75 | 12.1 | binds |  | no binding (tested: 800 nM) |  |
| Nanobody 07C03 with Tag-1 (VHH, periplasmic extract in the screening FACS) VHH: EVQLVESGGGLVQAGESLTLSCAASGRTLSAYIMGWFRQAPGKEREFVAGIWSGGYTHLADSAKGRFSISRDNAKNTVYLQMNGLKPEDTAVYYCAAGLRGRQYSNWGQGTQVTVSS | 0.053 | 4.4 | 73.2 | 23400 |  |  |  |  |  |  |  |
| Nanobody 07C03 with Tag-2 (VHH, Purified from E. coli periplasm) VHH: EVQLVESGGGLVQAGESLTLSCAASGRTLSAYIMGWFRQAPGKEREFVAGIWSGGYTHLADSAKGRFSISRDNAKNTVYLQMNGLKPEDTAVYYCAAGLRGRQYSNWGQGTQVTVSS |  |  |  |  | 33100 | 78 | 12.2 | binds | binds |  | > 95 |
| Nanobody 07B11 with Tag-1 (VHH, periplasmic extract in the screening FACS) VHH: EVQLVESGGNLVQAGGSLGLSCAASVSISSIHIMGWYRQAPGKQRDLVATITSGGSTAYADSVKGRFTVSKDNAKNTVYLQMDSLKPEDTSVYYCAAEVRNGVFGKWNHYWGQGTQVTVSS | 0.041 | 4.1 | 110 | 42900 |  |  |  |  |  |  |  |
| Nanobody 07B11 with Tag-2 (VHH, Purified from E. coli periplasm) VHH: EVQLVESGGNLVQAGGSLGLSCAASVSISSIHIMGWYRQAPGKQRDLVATITSGGSTAYADSVKGRFTVSKDNAKNTVYLQMDSLKPEDTSVYYCAAEVRNGVFGKWNHYWGQGTQVTVSS |  |  |  |  | 24900 | 75 | 96.1 | binds |  | no binding (tested: 800 nM) |  |
| Nanobody 01C10 with Tag-1 (VHH) VHH: EVQLVESGGGLVQTGASLRLSCAASGRTFSNYAMGWFRQAPGKERERVAAITPRAFTTYYADSVKGRFTISRDNAKNTAYLQMVSLKPEDTAVYYCAAQLVGSGSNLGRQESYAYWGQGTQVTVSS | 0.145 | 4.2 |  |  |  |  |  |  |  |  |  |
| Nanobody 01C10 with Tag-2 (VHH, Purified from E. coli periplasm) VHH: EVQLVESGGGLVQTGASLRLSCAASGRTFSNYAMGWFRQAPGKERERVAAITPRAFTTYYADSVKGRFTISRDNAKNTAYLQMVSLKPEDTAVYYCAAQLVGSGSNLGRQESYAYWGQGTQVTVSS |  |  |  |  |  | 31 | 20.7 | binds | binds |  |  |
